# Assay results: patent publication US20220048967A1 (published 2022)
# Numbered stars: 1 amine (or outer) side, 2 acyl side, 3 side chain; on linkers, the order of the positions; unused ones are H or OH. Square brackets hold non-standard residues; d marks the D form. Side chains are listed from the residue outwards. Ends that are not written are not given here. * marks the point of attachment. C20 diacid = O=C(O)CCCCCCCCCCCCCCCCCCC(=O)*; αMePhe(2-F) = C[C@](N)(Cc1ccccc1F)C(=O)O; γGlu = O=C(O)[C@H](CCC(=O)[*:2])N[*:1]; αMeF = C[C@](N)(Cc1ccccc1)C(=O)O; AEEA = NCCOCCOCC(=O)O; Aib = CC(C)(N)C(=O)O
# T1: human gastric inhibitory peptide receptor (GIPR) (human, UniProt P48546 22-466)
# T1 sequence (looked up): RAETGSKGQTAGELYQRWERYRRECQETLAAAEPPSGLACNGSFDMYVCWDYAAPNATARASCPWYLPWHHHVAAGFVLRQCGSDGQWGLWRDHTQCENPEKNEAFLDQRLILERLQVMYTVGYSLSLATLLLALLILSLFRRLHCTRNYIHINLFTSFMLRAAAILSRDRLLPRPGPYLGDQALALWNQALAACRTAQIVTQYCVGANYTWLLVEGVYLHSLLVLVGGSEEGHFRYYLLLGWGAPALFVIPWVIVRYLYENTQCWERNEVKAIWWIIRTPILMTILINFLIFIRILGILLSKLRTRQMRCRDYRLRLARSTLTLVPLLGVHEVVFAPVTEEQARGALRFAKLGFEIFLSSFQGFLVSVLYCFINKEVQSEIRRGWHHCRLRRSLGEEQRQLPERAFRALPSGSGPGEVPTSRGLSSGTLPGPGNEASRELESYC
# B1: Example 142 (peptide)
# peptide: Y[Aib]EGT[αMeF]TSDYSIXLDKKAQ[Aib]HFIEYLIEGGPSSGAPPPS-NH2
# modifications: not fully specified (residues 13, 17); printed as Y-Aib-EGT-αMeF-TSDYSI-αMeF-LDKK((2-[2-(2-Amino-ethoxy)-ethoxy]-acetyl)2-(γ-Glu)-CO-(CH2)18-CO2H)AQ-Aib-HFIEYLIEGGPSSGAPPPS-NH2
# B2: Example 140 (peptide)
# peptide: Y[Aib]EGT[αMeF]TSDYSIXLDKKAQ[Aib]DFIEYLIEGGPSSGAPPPS-NH2
# modifications: not fully specified (residues 13, 17); printed as Y-Aib-EGT-αMeF-TSDYSI-αMeF-LDKK((2-[2-(2-Amino-ethoxy)-ethoxy]-acetyl)2-(γ-Glu)-CO-(CH2)18-CO2H)AQ-Aib-DFIEYLIEGGPSSGAPPPS-NH2
# B3: Example 136 (peptide)
# peptide: Y[Aib]EGTFTSDASILLDKK([AEEA-AEEA-γGlu-C20 diacid])AQ[Aib]AFIEYLIEAGPSSGAPPPS-NH2
# modifications: N-terminus assumed
# SMILES: CC[C@H](C)[C@H](NC(=O)[C@H](CC(C)C)NC(=O)[C@H](Cc1ccc(O)cc1)NC(=O)[C@H](CCC(=O)O)NC(=O)[C@@H](NC(=O)[C@H](Cc1ccccc1)NC(=O)[C@H](C)NC(=O)C(C)(C)NC(=O)[C@H](CCC(N)=O)NC(=O)[C@H](C)NC(=O)[C@H](CCCCNC(=O)COCCOCCNC(=O)COCCOCCNC(=O)CC[C@H](NC(=O)CCCCCCCCCCCCCCCCCCC(=O)O)C(=O)O)NC(=O)[C@H](CCCCN)NC(=O)[C@H](CC(=O)O)NC(=O)[C@H](CC(C)C)NC(=O)[C@H](CC(C)C)NC(=O)[C@@H](NC(=O)[C@H](CO)NC(=O)[C@H](C)NC(=O)[C@H](CC(=O)O)NC(=O)[C@H](CO)NC(=O)[C@@H](NC(=O)[C@H](Cc1ccccc1)NC(=O)[C@@H](NC(=O)CNC(=O)[C@H](CCC(=O)O)NC(=O)C(C)(C)NC(=O)[C@@H](N)Cc1ccc(O)cc1)[C@@H](C)O)[C@@H](C)O)[C@@H](C)CC)[C@@H](C)CC)C(=O)N[C@@H](CCC(=O)O)C(=O)N[C@@H](C)C(=O)NCC(=O)N1CCC[C@H]1C(=O)N[C@@H](CO)C(=O)N[C@@H](CO)C(=O)NCC(=O)N[C@@H](C)C(=O)N1CCC[C@H]1C(=O)N1CCC[C@H]1C(=O)N1CCC[C@H]1C(=O)N[C@@H](CO)C(N)=O
# B4: Example 150 (peptide)
# peptide: Y[Aib]EGT[αMePhe(2-F)]TSDYSIXLDEKAQ[Aib]EFISYLIEGGPSSGAPPPS-NH2
# modifications: not fully specified (residues 13, 17); printed as Y-Aib-EGT-αMeF(2F)-TSDYSI-αMeF-LDEK((2-[2-(2-Amino-ethoxy)-ethoxy]-acetyl)2-(γ-Glu)-CO-(CH2)18-CO2H)AQ-Aib-EFISYLIEGGPSSGAPPPS-NH2
# B5: Example 152 (peptide)
# peptide: Y[Aib]EGT[αMePhe(2-F)]TSDYSIXLDEKAQ[Aib]EFI[Aib]YLIEGGPSSGAPPPS-NH2
# modifications: not fully specified (residues 13, 17); printed as Y-Aib-EGT-αMeF(2F)-TSDYSI-αMeF-LDEK((2-[2-(2-Amino-ethoxy)-ethoxy]-acetyl)2-(γ-Glu)-CO-(CH2)18-CO2H)AQ-Aib-EFI-Aib-YLIEGGPSSGAPPPS-NH2
# B6: Example 151 (peptide)
# peptide: Y[Aib]EGT[αMePhe(2-F)]TSDYSIXLDEKAQ[Aib]EFIPYLIEGGPSSGAPPPS-NH2
# modifications: not fully specified (residues 13, 17); printed as Y-Aib-EGT-αMeF(2F)-TSDYSI-αMeF-LDEK((2-[2-(2-Amino-ethoxy)-ethoxy]-acetyl)2-(γ-Glu)-CO-(CH2)18-CO2H)AQ-Aib-EFIPYLIEGGPSSGAPPPS-NH2
# B7: Example 141 (peptide)
# peptide: Y[Aib]EGT[αMeF]TSDYSIXLDKKAQ[Aib]IFIEYLIEGGPSSGAPPPS-NH2
# modifications: not fully specified (residues 13, 17); printed as Y-Aib-EGT-αMeF-TSDYSI-αMeF-LDKK((2-[2-(2-Amino-ethoxy)-ethoxy]-acetyl)2-(γ-Glu)-CO-(CH2)18-CO2H)AQ-Aib-IFIEYLIEGGPSSGAPPPS-NH2
# B8: Example 146 (peptide)
# peptide: Y[Aib]EGT[αMePhe(2-F)]TSDYSIXLDEKAQ[Aib]EFIQYLIEGGPSSGAPPPS-NH2
# modifications: not fully specified (residues 13, 17); printed as Y-Aib-EGT-αMeF(2F)-TSDYSI-αMeF-LDEK((2-[2-(2-Amino-ethoxy)-ethoxy]-acetyl)2-(γ-Glu)-CO-(CH2)18-CO2H)AQ-Aib-EFIQYLIEGGPSSGAPPPS-NH2
# B9: Example 145 (peptide)
# peptide: Y[Aib]EGT[αMeF]TSDASIXLDKKAQ[Aib]AFIEYLIEGGPSSGAPPPS-NH2
# modifications: not fully specified (residues 13, 17); printed as Y-Aib-EGT-αMeF-TSDASI-αMeF-LDKK((2-[2-(2-Amino-ethoxy)-ethoxy]-acetyl)2-(γ-Glu)-CO-(CH2)18-CO2H)AQ-Aib-AFIEYLIEGGPSSGAPPPS-NH2
# B10: Example 149 (peptide)
# peptide: Y[Aib]EGT[αMePhe(2-F)]TSDYSIXLDEKAQ[Aib]EFIVYLIEGGPSSGAPPPS-NH2
# modifications: not fully specified (residues 13, 17); printed as Y-Aib-EGT-αMeF(2F)-TSDYSI-αMeF-LDEK((2-[2-(2-Amino-ethoxy)-ethoxy]-acetyl)2-(γ-Glu)-CO-(CH2)18-CO2H)AQ-Aib-EFIVYLIEGGPSSGAPPPS-NH2
# B11: Example 148 (peptide)
# peptide: Y[Aib]EGT[αMePhe(2-F)]TSDYSIXLDEKAQ[Aib]EFIAYLIEGGPSSGAPPPS-NH2
# modifications: not fully specified (residues 13, 17); printed as Y-Aib-EGT-αMeF(2F)-TSDYSI-αMeF-LDEK((2-[2-(2-Amino-ethoxy)-ethoxy]-acetyl)2-(γ-Glu)-CO-(CH2)18-CO2H)AQ-Aib-EFIAYLIEGGPSSGAPPPS-NH2
# B12: Example 143 (peptide)
# peptide: Y[Aib]EGT[αMeF]TSDYSIXLDKKAQ[Aib][Aib]FIEYLIEGGPSSGAPPPS-NH2
# modifications: not fully specified (residues 13, 17); printed as Y-Aib-EGT-αMeF-TSDYSI-αMeF-LDKK((2-[2-(2-Amino-ethoxy)-ethoxy]-acetyl)2-(γ-Glu)-CO-(CH2)18-CO2H)AQ-Aib-Aib-FIEYLIEGGPSSGAPPPS-NH2
# B13: Example 139 (peptide)
# peptide: Y[Aib]EGT[αMeF]TSDYSIXLDKK([AEEA-AEEA-γGlu-C20 diacid])AQ[Aib]TFIEYLIEGGPSSGAPPPS-NH2
# modifications: not fully specified (residue 13); printed as Y-Aib-EGT-αMeF-TSDYSI-αMeF-LDKK((2-[2-(2-Amino-ethoxy)-ethoxy]-acetyl)2-(γ-Glu)-CO-(CH2)18-CO2H)AQ-Aib-TFIEYLIEGGPSSGAPPPS-NH2
# B14: Example 144 (peptide)
# peptide: Y[Aib]EGT[αMeF]TSDYSIXLDKKAQH[Aib]FIEYLIEGGPSSGAPPPS-NH2
# modifications: not fully specified (residues 13, 17); printed as Y-Aib-EGT-αMeF-TSDYSI-αMeF-LDKK((2-[2-(2-Amino-ethoxy)-ethoxy]-acetyl)2-(γ-Glu)-CO-(CH2)18-CO2H)AQH-Aib-FIEYLIEGGPSSGAPPPS-NH2
# Molecular target: T1, human gastric inhibitory peptide …
# Assay: cell-based or functional assay
Binder,hGIPR cAMP EC50 ratio,hGIPR cAMP Rel EC50 [nM]
B1,2.84,0.0489
B2,3.76,0.0349
B3,0.0544,3.39
B4,2.64,0.0511
B5,2.57,0.0504
B6,0.262,0.41
B7,0.538,0.2
B8,1.98,0.0583
B9,2.46,0.0514
B10,1.82,0.0711
B11,2.7,0.043
B12,2.78,0.0515
B13,3.61,0.037
B14,3.6,0.0375

# Molecular target: human GLP-1 receptor (GLP-1R) (human, UniProt P43220 24-463)
# Assay: cell-based or functional assay
Binder,hGLP1R cAMP EC50 ratio,hGLP1R cAMP Rel EC50 [nM]
B1,1.22,0.0426
B2,1.16,0.0424
B3,1.1,0.06
B4,0.79,0.0575
B5,0.484,0.0915
B6,0.0278,1.6
B7,0.414,0.0975
B8,0.951,0.0604
B9,1.22,0.0427
B10,0.484,0.0916
B11,0.859,0.0626
B12,0.714,0.0745
B13,1.13,0.0417
B14,0.851,0.0608
